Laboratory results as given in the supplement of paper PMC10567573.

B1: CAMK2A (parent)
chain: ILLVGYPPFWDEDQHRLYKQIKAG

Variants of: B1
Test: protein stability index of a GFP-peptide fusion (GPS, HEK-293T) (PSI 1-6); higher = more stable
Settings: c terminus: a fixed tail appended
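Also: lentivirally expressed fusions sorted by FACS into six bins by GFP to DsRed ratio, PSI derived from sequencing read proportions per bin multiplied by bin number.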

| Variant | protein stability index |
| --- | --- |
| ILLVGYPPFWLEDQHRLYKQIKAG [D11L] | 2.39 |
| ILLVGYPPFWCEDQHRLYKQIKAG [D11C] | 2.48 |
| ILLVGYPPFWVEDQHRLYKQIKAG [D11V] | 2.18 |
| ILLVGYPPFWNEDQHRLYKQIKAG [D11N] | 2.59 |
| ILLVGYPPFWIEDQHRLYKQIKAG [D11I] | 3.45 |
| ILLVGYPPFWEEDQHRLYKQIKAG [D11E] | 3.38 |
| ILLVGYPPFWTEDQHRLYKQIKAG [D11T] | 1.85 |
| ILLVGYPPFYDEDQHRLYKQIKAG [W10Y] | 2.05 |
| ILLVGYPPFVDEDQHRLYKQIKAG [W10V] | 2.05 |
| ILLVGYPPFSDEDQHRLYKQIKAG [W10S] | 2.45 |
| ILLVGYPPFRDEDQHRLYKQIKAG [W10R] | 1.52 |
| ILLVGYPPFTDEDQHRLYKQIKAG [W10T] | 2.34 |
| ILLVGYPPFWDEDQHRRYKQIKAG [L17R] | 2.12 |
| ILLVGYPPFWDEDQHRIYKQIKAG [L17I] | 2.1 |
| ILLVGYPPFWDEDQHRAYKQIKAG [L17A] | 1.62 |
| ILLVGYPPFWDEDQHRYYKQIKAG [L17Y] | 2.38 |
| ILLVGYPPFWDEDQHRCYKQIKAG [L17C] | 1.19 |
| ILLVGYPPFWDEDQHRFYKQIKAG [L17F] | 2.12 |
| ILLVGYPPFWDEDQHRPYKQIKAG [L17P] | 2.03 |
| ILLVGYPPFWDEDQHRQYKQIKAG [L17Q] | 2.3 |
| ILLVGYPPFWDEDQHRWYKQIKAG [L17W] | 2.09 |
| ILLVGYPPFWDEDQHRNYKQIKAG [L17N] | 1.31 |
| ILLVGYPPFWDEDQHRSYKQIKAG [L17S] | 1.8 |
| ILLVGYPPFWDEDQHRGYKQIKAG [L17G] | 1.58 |

| Variant | protein stability index |
| --- | --- |
| ILLVGYPPFWDEDQHRHYKQIKAG [L17H] | 1.75 |
| ILLVGYPPFWDEDQHRTYKQIKAG [L17T] | 2.14 |
| ILLVGYPPFWDEDQHRKYKQIKAG [L17K] | 1.74 |
| ILLVGYPPFWDEDQHREYKQIKAG [L17E] | 2.09 |
| ILLVGYPPFWDEDQHRDYKQIKAG [L17D] | 2.06 |
| ILLVGYPPFWDEDQHRMYKQIKAG [L17M] | 2.47 |
| ILLVGYPPFWDEDQHRVYKQIKAG [L17V] | 2.21 |
| ILLVGYPPFWDEDQHRLYGQIKAG [K19G] | 3.31 |
| ILLVGYPPFWDEDQHRLYWQIKAG [K19W] | 2.65 |
| ILLVGYPPFWDEDQHRLYAQIKAG [K19A] | 1.65 |
| ILLVGYPPFWDEDQHRLYPQIKAG [K19P] | 1.73 |
| ILLVGYPPFWDEDQHRLYNQIKAG [K19N] | 3.09 |
| ILLVGYPPFWDEDQHRLYQQIKAG [K19Q] | 2.79 |
| ILLVGYPPFWDEDQHRLYIQIKAG [K19I] | 2.67 |
| ILLVGYPPFWDEDQHRLYDQIKAG [K19D] | 2.82 |
| ILLVGYPPFWDEDQHRLYRQIKAG [K19R] | 1.36 |
| ILLVGYPPFWDEDQHRLYEQIKAG [K19E] | 1.87 |
| ILLVGYPPFWDEDQHRLYTQIKAG [K19T] | 1.72 |
| ILLVGYPPFWDEDQHRLYFQIKAG [K19F] | 2.66 |
| ILLVGYPPFWDEDQHRLYHQIKAG [K19H] | 1.38 |
| ILLVGYPPFWDEDQHRLYVQIKAG [K19V] | 2.9 |
| ILLVGYPPFWDEDQHRLYYQIKAG [K19Y] | 3.14 |
| ILLVGYPPFWDEDQHRLYMQIKAG [K19M] | 3.5 |
| ILLVGYPPFWDEDQHRLYSQIKAG [K19S] | 2.63 |

| Variant | protein stability index |
| --- | --- |
| ILLVGYPPFWDEDQHRLYKLIKAG [Q20L] | 2.6 |
| ILLVGYPPFWDEDQHRLYKMIKAG [Q20M] | 2.36 |
| ILLVGYPPFWDEDQHRLYKPIKAG [Q20P] | 1.39 |
| ILLVGYPPFWDEDQHRLYKGIKAG [Q20G] | 2.1 |
| ILLVGYPPFWDEDQHRLYKTIKAG [Q20T] | 1.62 |
| ILLVGYPPFWDEDQHRLYKWIKAG [Q20W] | 2.02 |
| ILLVGYPPFWDEDQHRLYKKIKAG [Q20K] | 1.56 |
| ILLVGYPPFWDEDQHRLYKCIKAG [Q20C] | 1.94 |
| ILLVGYPPFWDEDQHRLYKRIKAG [Q20R] | 2 |
| ILLVGYPPFWDEDQHRLYKFIKAG [Q20F] | 2.69 |
| ILLVGYPPFWDEDQHRLYKNIKAG [Q20N] | 1.83 |
| ILLVGYPPFWDEDQHRLYKIIKAG [Q20I] | 1.96 |
| ILLVGYPPFWDEDQHRLYKDIKAG [Q20D] | 1.9 |
| ILLVGYPPFWDEDQHRLYKEIKAG [Q20E] | 2.18 |
| ILLVGYPPFWDEDQHRLYKVIKAG [Q20V] | 3.11 |
| ILLVGYPPFWDEDQHRLYKSIKAG [Q20S] | 1.86 |
| ILLVGYPPFWDEDQHRLYKHIKAG [Q20H] | 2.86 |
| ILLVGYPPFWDEDQHRLYKAIKAG [Q20A] | 1.78 |
| ILLVGYPPFWDEDQHRLYKQHKAG [I21H] | 1.47 |
| ILLVGYPPFWDEDQHRLYKQEKAG [I21E] | 1.92 |
| ILLVGYPPFWDEDQHRLYKQAKAG [I21A] | 1.79 |
| ILLVGYPPFWDEDQHRLYKQLKAG [I21L] | 2.31 |
| ILLVGYPPFWDEDQHRLYKQDKAG [I21D] | 1.99 |
| ILLVGYPPFWDEDQHRLYKQFKAG [I21F] | 3.06 |

| Variant | protein stability index |
| --- | --- |
| ILLVGYPPFWDEDQHRLYKQCKAG [I21C] | 2.35 |
| ILLVGYPPFWDEDQHRLYKQGKAG [I21G] | 1.54 |
| ILLVGYPPFWDEDQHRLYKQKKAG [I21K] | 1.65 |
| ILLVGYPPFWDEDQHRLTKQIKAG [Y18T] | 3.2 |
| ILLVGYPPFWDEDQHRLAKQIKAG [Y18A] | 2.09 |
| ILLVGYPPFWDEDQHRLEKQIKAG [Y18E] | 2.38 |
| ILLVGYPPFWDEDQHRLWKQIKAG [Y18W] | 2.45 |
| ILLVGYPPFWDEDQHRLSKQIKAG [Y18S] | 1.95 |
| ILLVGYPPFWDEDQHRLPKQIKAG [Y18P] | 1.71 |
| ILLVGYPPFWDEDQHRLCKQIKAG [Y18C] | 1.73 |
| ILLVGYPPFWDEDQHRLKKQIKAG [Y18K] | 2.31 |
| ILLVGYPPFWDEDQHRLFKQIKAG [Y18F] | 1.4 |
| ILLVGYPPFWDEDQHRLGKQIKAG [Y18G] | 2.79 |
| ILLVGYPPFWDEDQHRLNKQIKAG [Y18N] | 2.05 |
| ILLVGYPPFWDEDQHRLLKQIKAG [Y18L] | 2.48 |
| ILLVGYPPFWDEDQHRLRKQIKAG [Y18R] | 2.45 |
| ILLVGYPPFWDEDQHRLVKQIKAG [Y18V] | 1.25 |
| ILLVGYPPFWDEDQHRLQKQIKAG [Y18Q] | 1.51 |
| ILLVGYPPFWDEDQHRLMKQIKAG [Y18M] | 2.16 |
| ILLVGYPPFWDEDQHRLDKQIKAG [Y18D] | 1.97 |
| ILLVGYPPFWDEDQHRLHKQIKAG [Y18H] | 1.89 |
| ILLVGYPPFWDEDQHRLIKQIKAG [Y18I] | 2.21 |
